These results are taken from paper PMC4227133.

This assay has as its target Gal4 Cyclin T1s with a mutated Y175.

B1: Hexim1, endogenous in HEK293 cells, O94992 1-359 (natural protein)
chain: MAEPFLSEYQHQPQTSNCTGAAAVQEELNPERPPGAEERVPEEDSRWQSRAFPQLGGRPGPEGEGSLESQPPPLQTQACPESSCLREGEKGQNGDDSSAGGDFPPPAEVEPTPEAELLAQPCHDSEASKLGAPAAGGEEEWGQQQRQLGKKKHRRRPSKKKRHWKPYYKLTWEEKKKFDEKQSLRASRIRAEMFAKGQPVAPYNTTQFLMDDHDQEEPDLKTGLYSKRAAAKSDDTSDDDFMEEGGEEDGGSDGMGGDGSEFLQRDFSETYERYHTESLQNMSKQELIKEYLELEKCLSRMEDENNRLRLESKRLGGDDARVRELELELDRLRAENLQLLTENELHRQQERAPLSKFGD
B1 showed an other of 2 fold.
